Experimental data: US20200054719

Tested on: thrombin-activatable fibrinolysis inhibitor (TAFI), purified

Substance: E-WE thrombin (E. coli derived, non-glycosylated W215A/E217A thrombin)
- activated TAFI, measured as hippuric acid generated from hippuryl-arginine (absorbance at 382 nm): E-WE thrombin is a poor activator of TAFI
